Source: PMC13094992, “Genetic complementation reveals structure-function links in nodavirus RNA replication complex crowns” (PLOS Pathogens, 2026)
Residue numbers refer to the chain shown, from its start. Names may count otherwise.

Target: the molecule itself
Assay: negative-stain electron microscopy (2D classification, 3D reconstruction)

B1: FHV protein A H93A, C-terminal alfa tag (natural protein)
chain: MTLKVILGEHQITRTELLVGIATVSGCGAVVYCISKFWGYGAIAPYPQSGGNRVTRALQRAVIDKTKTPIETRFYPLDSLRTVTPKRVADNGAAVSGAVRDAARRLIDESITAVGGSKFEVNPNPNSSTGLRNHFHFAVGDLAQDFRNDTPADDAFIVGVDVDYYVTEPDVLLEHMRPVVLHTFNPKKVSGFDADSPFTIKNNLVEYKVSGGAAWVHPVWDWCEAGEFIASRVRTSWKEWFLQLPLRMIGLEKVGYHKIHHCRPWTDCPDRALVYTIPQYVIWRFNWIDTELHVRKLKRIEYQDETKPGWNRLEYVTDKNELLVSIGREGEHAQITIEKEKLDMLSGLSATQSVNARLIGMGHKDPQYTSMIVQYYTGKKVVSPISPTVYKPTMPRVHWPVTSDADVPEVSARQYTLPIVSDCMMMPMIKRWETMSESIERRVTFVANDKKPSDRIAKIAETFVKLMNGPFKDLDPLSIEETIERLNKPSQQLQLRAVFEMIGVKPRQLIESFNKNEPGMKSSRIISGFPDILFILKVSRYTLAYSDIVLHAEHNEHWYYPGRNPTEIADGVCEFVSDCDAEVIETDFSNLDGRVSSWMQRNIAQKAMVQAFRPEYRDEIISFMDTIINCPAKAKRFGFRYEPGVGVKSGSPTTTPHNTQYNGCVEFTALTFEHPDAEPEDLFRLIGPKCGDDGLSRAIIQKSINRAAKCFGLELKVERYNPEIGLCFLSRVFVDPLATTTTIQDPLRTLRKLHLTTRDPTIPLADAACDRVEGYLCTDALTPLISDYCKMVLRLYGPTASTEQVRNQRRSRNKEKPYWLTCDGSWPQHPQDAHLMKQVLIKRTAIDEDQVDALIGRFAAMKDVWEKITHDSEESAAACTFDEDGVAPNSVDESLPMLNDAKQTRANPGTSRPHSNGGGSSHGNELPRRTEQRAQGPRQPARLPKQGKTNGKSDGNITAGETQRGGIPRGKGPRGGKTNTRRTPPKAGAQPQPSNNRK
notes: also called RNA capping null mutant H93A; not shown: ALFA tag, C-terminal, kept
binding result: binds

B2: FHV protein A D692E, C-terminal alfa tag (natural protein)
chain: B1 chain with A93H, D692E
notes: also called RNA polymerase null mutant D692E; not shown: ALFA tag, C-terminal, kept
binding result: binds
